Test results reported in ChEMBL document CHEMBL2074331, “Kinetics of P-glycoprotein-mediated efflux of paclitaxel” (J Pharmacol Exp Ther, 2001).

Test system: CC(=O)O[C@H]1C(=O)[C@@]2(C)[C@H]([C@H](OC(=O)c3ccccc3)[C@]3(O)C[C@H](OC(=O)[C@H](O)[C@@H](NC(=O)c4ccccc4)c4ccccc4)C(C)=C1C3(C)C)[C@]1(OC(C)=O)CO[C@@H]1C[C@@H]2O
Assay: TP_TRANSPORTER: uptake in MDR1-expressing MCF7 cells
Assay type: functional, cell-based

ATP-dependent translocase ABCB1 (Homo sapiens)
Km: 0.014 µM
